Biological target: T1, Crp1 (MSMEG_6189), C-terminal His6 (UniProt A0R5H1 1-224)
T1 sequence: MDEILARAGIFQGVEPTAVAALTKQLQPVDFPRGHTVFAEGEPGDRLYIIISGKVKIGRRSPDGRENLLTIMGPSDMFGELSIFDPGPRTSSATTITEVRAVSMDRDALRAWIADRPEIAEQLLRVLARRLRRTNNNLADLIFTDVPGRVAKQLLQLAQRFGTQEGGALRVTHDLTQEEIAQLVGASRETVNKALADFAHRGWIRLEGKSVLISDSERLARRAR
Assay: EMSA; 200 uM cAMP; binding virtually abolished; EMSA: 20 mM Tris-HCl pH 8.0, 100 mM NaCl, 2.5 mM MgCl2, 1 mM EDTA, 1 mM DTT, 50 ug/ml BSA, 10% glycerol, 25 C 20 min; footprinting: 20 mM Tris-HCl pH 8.0, 0.2 mM MgCl2, 2.1 mM KCl, 0.04 mM DTT, 11.1% glycerol, 25 C, 0.15-0.6 uM Crp1
Details: protein: recombinant; tags: C-terminal His6; chain copies: 2; label: none (SYBR Green stain); blunt

B1: M3 (CBS1+CBS2 mutant) 99-bp (dsDNA)
DNA 1: GCAGCGGGGTCAGGAAGCTCGGCGCCGCCTTCCCGACCGGCTTTTCATCGGCGCCTCCCCCCAGCTAACCTTTCGCGCTACCTGCGTCGATCTCCTGGC
DNA 2: GCCAGGAGATCGACGCAGGTAGCGCGAAAGGTTAGCTGGGGGGAGGCGCCGATGAAAAGCCGGTCGGGAAGGCGGCGCCGAGCTTCCTGACCCCGCTGC
  binding result: no binding

Reference: paper PMC7739888, “Induction of the cydAB Operon Encoding the bd Quinol Oxidase Under Respiration-Inhibitory Conditions by the Major cAMP Receptor Protein MSMEG_6189 in Mycobacterium smegmatis”
